Assay results from US7276370 (DONALD DANFORTH PLANT SCIENCE CENTER, dated 2007).

Target: the molecule itself
Assay: EMSA, E. coli protein extract with 32P-labeled BoxIIml DNA probe; homodimer inferred from the shifted band
Protocol: FIG. 5: Electrophoretic mobility shift assay (EMSA) of Rf2a and the 3Δ mutant of Rf2a. Oligonucleotides containing the BoxIIml sequences (Yin et al., 1997a) were used as ^32P-labeled probe or an unlabeled competitor in an EMSA with 500 ng of *E. coli* protein containing 3Δ protein or Rf2a. Unbound probe is located near the bottom of the gel. The band with the greatest mobility in lanes 1, 2, 4, and 5 indicated by x is presumed to result from binding with an uncharacterized protein that co-purifies with the target protein. Lane 1, protein prepared from *E. coli* without induction. Lane 2, reaction with extracts of *E. coli* that produce Rf2a. Lane 3, reaction with equimolar amounts of Rf2a and 3Δ plus 80× fold molar excess of unlabeled competitor probe relative to the labeled probe. Lane 4, reaction with equimolar amounts of Rf2a and 3Δ. Lane 5, reaction with 3Δ.
Electrophoretic mobility shift assays (EMSAs). EMSAs were carried out essentially as described by Yin and Beachy (7). 500 ng of *E. coli* protein extracts were incubated with 32_P labeled DNA probes comprising Box IIml that was constructed using annealed oligonucleotides (10). For competition EMSA, unlabeled oligonucleotides were added to the binding reactions at 80 fold molar excess relative to the labeled probe (see FIG. 5).

B1: Rf2a transcription factor (other)
chain: MNREKSPIPGDGGDGLPPQATRRAGPPAAAAAAEYDISRMPDFPTRNPGHRRAHSEILSLPEDLDLCAAGGGDGPSLSDENDEELFSMFLDVEKLNSTCGASSEAEAESSSAAAHGARPKHQHSLSMDESMSIKAEELVGASPGTEGMSSAEAKKAVSAVKLAELALVDPKRAKRIWANRQSAARSKERKMRYIAELERKVQTLQTEATTLSAQLALLQRDTSGLTTENSELKLRLQTMEQQVHLQDALNDTLKSEVQRLKVATGQMANGGGMMMNFGGMPHQFGGNQQMFQNNQAMQSMLAAHQLQQLQLHPQAQQQQVLHPQHQQQQPLHPLQAQQLQQAARDLKMKSPMGGQSQWGDGKSGSSGN
notes: The 5' primer encodes an extra Met-Glu-Lys before MNREKS; Crude E. coli protein extract was used in the EMSA; also called rice transcription factor Rf2a
binding result: binds
